Source: US20080096223A1

Legend:
[1] = biological target: reference Nanobody (in accordance with WO 04/062551); experiment: competition ELISA: soluble ristocetin-preincubated wt-VWF at equal molar concentration against 62.5 nM biotinylated reference Nanobody on immobilized VWF
[2] = biological target: VWF in human whole blood of healthy volunteers (human) (UniProt P04275); experiment: cell-based or functional assay

Row | percent reduction of binding [1] [%] | platelet coverage [2] [%] | Substance
1 | 90 | – | wt-VWF preincubated with 1 mg/ml ristocetin (ristocetin-activated VWF) (from UniProt P04275 764-2813)
2 | – | 67.8 | GpIbα on platelets (from UniProt P07359 17-652) (receptor)
